PMC6691574

B1: CD36: S468A (protein)
parent chain: MGCDRNCGLIAGAVIGAVLAVFGGILMPVGDLLIQKTIKKQVVLEEGTIAFKNWVKTGTEVYRQFWIFDVQNPQEVMMNSSNIQVKQRGPYTYRVRFLAKENVTQDAEDNTVSFLQPNGAIFEPSLSVGTEADNFTVLNLAVAAASHIYQNQFVQMILNSLINKSKSSMFQVRTLRELLWGYRDPFLSLVPYPVTTTVGLFYPYNNTADGVYKVFNGKDNISKVAIIDTYKGKRNLSYWESHCDMINGTDAASFPPFVEKSQVLQFFSSDICRSIYAVFESDVNLKGIPVYRFVLPSKAFASPVENPDNYCFCTEKIISKNCTSYGVLDISKCKEGRPVYISLPHFLYASPDVSEPIDGLNPNEEEHRTYLDIEPITGFTLQFAKRLQVNLLVKPSEKIQVLKNLKRNYIVPILWLNETGTIGDEKANMFRSQVTGKINLLGLIEMILLSVGVVMFVAFMISYCACRSKTIK
B2: CD36: S468A/T470A (protein)
parent chain: MGCDRNCGLIAGAVIGAVLAVFGGILMPVGDLLIQKTIKKQVVLEEGTIAFKNWVKTGTEVYRQFWIFDVQNPQEVMMNSSNIQVKQRGPYTYRVRFLAKENVTQDAEDNTVSFLQPNGAIFEPSLSVGTEADNFTVLNLAVAAASHIYQNQFVQMILNSLINKSKSSMFQVRTLRELLWGYRDPFLSLVPYPVTTTVGLFYPYNNTADGVYKVFNGKDNISKVAIIDTYKGKRNLSYWESHCDMINGTDAASFPPFVEKSQVLQFFSSDICRSIYAVFESDVNLKGIPVYRFVLPSKAFASPVENPDNYCFCTEKIISKNCTSYGVLDISKCKEGRPVYISLPHFLYASPDVSEPIDGLNPNEEEHRTYLDIEPITGFTLQFAKRLQVNLLVKPSEKIQVLKNLKRNYIVPILWLNETGTIGDEKANMFRSQVTGKINLLGLIEMILLSVGVVMFVAFMISYCACRSKTIK
B3: CD36: T470A (protein)
parent chain: MGCDRNCGLIAGAVIGAVLAVFGGILMPVGDLLIQKTIKKQVVLEEGTIAFKNWVKTGTEVYRQFWIFDVQNPQEVMMNSSNIQVKQRGPYTYRVRFLAKENVTQDAEDNTVSFLQPNGAIFEPSLSVGTEADNFTVLNLAVAAASHIYQNQFVQMILNSLINKSKSSMFQVRTLRELLWGYRDPFLSLVPYPVTTTVGLFYPYNNTADGVYKVFNGKDNISKVAIIDTYKGKRNLSYWESHCDMINGTDAASFPPFVEKSQVLQFFSSDICRSIYAVFESDVNLKGIPVYRFVLPSKAFASPVENPDNYCFCTEKIISKNCTSYGVLDISKCKEGRPVYISLPHFLYASPDVSEPIDGLNPNEEEHRTYLDIEPITGFTLQFAKRLQVNLLVKPSEKIQVLKNLKRNYIVPILWLNETGTIGDEKANMFRSQVTGKINLLGLIEMILLSVGVVMFVAFMISYCACRSKTIK

Assays:
[1] = Nile red staining after PA, SGC 7901; details: glycan lost; control: wild-type CD36
[2] = fluorescent FA uptake kit, time course, SGC 7901; details: glycan lost; control: wild-type CD36

Protein	other: transport activity [1]	other: transport activity [2]
B1	decreases	decreases
B2	decreases	decreases
B3	decreases	decreases
